Source: patent US20040185525A1, “Process for producing peptide” (priority 2001, published 2004)

Biological target: T1, GPR8 (Homo sapiens, UniProt P48146)
T1 construct: expressed in transfected cells; host or cells: CHO cells (membrane fraction)
Assay: GTPγS binding activity using a cell membrane fraction of CHO cells expressing GPR8
Format: biochemical
Settings: fraction containing cell membrane of CHO cells expressing GPR8; compared with synthetic hGPR8L; process of Example 6 in WO 01/98494
Text: FIG. 4 is a graph showing the GTPγS binding activity of hGPR8L (SEQ ID NO: 44) of Example 1 to 3 toward CHO cells expressing GPR8. The horizontal axis indicates the concentration of hGPR8L while the vertical axis indicates the GTPyS binding activity. The solid points (-•-) indicate the results obtained for a synthetic hGPR8L (SEQ ID NO: 44) while the open points (-∘-) indicate the results obtained for hGPR8L (SEQ ID NO: 44) produced by the method of the present invention (tandem repeat technique).
Using a fraction containing cell membrane of CHO cells expressing GPR8, the GTPγS binding activity of the hGPR8L obtained above was determined by the same process as described in Example 6 in WO 01/98494.

T1 sequence (P48146 whole entry): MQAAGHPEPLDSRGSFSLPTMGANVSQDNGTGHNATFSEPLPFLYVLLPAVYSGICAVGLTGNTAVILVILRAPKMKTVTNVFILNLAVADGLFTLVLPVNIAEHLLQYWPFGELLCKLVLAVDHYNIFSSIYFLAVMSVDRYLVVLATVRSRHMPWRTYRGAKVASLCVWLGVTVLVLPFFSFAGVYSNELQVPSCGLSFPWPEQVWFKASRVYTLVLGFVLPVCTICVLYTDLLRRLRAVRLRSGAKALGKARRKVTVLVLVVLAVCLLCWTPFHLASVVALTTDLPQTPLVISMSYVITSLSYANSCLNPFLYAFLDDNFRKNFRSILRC

hGPR8L: 23-residue ligand polypeptide for human GPR8 (SEQ ID NO: 44), produced by the tandem repeat technique in E. coli (WYKHVASPRYHTVGRAAGLLMGL; Human)
GTPγS binding activity: equivalent to that of the artificially synthesized protein
